Assay results as given in patent publication US20240343815A1 (CHIA TAI TIANQING PHARMACEUTICAL GROUP, published 2024).
Residue numbers refer to the chain shown, from its start. Where two headings read alike, the source gives them in different places.

Experiments:
[1] = target: T1, human IL4Rα on HEK293T-IL4Rα-STAT6-STAT6LUC-LB2 cells (human, UniProt P24394 26-825); assay: cell-based or functional assay
[2] = target: T2, recombinant human IL4Rα-his protein (human, UniProt P24394 26-232, biotinylated in the capture ELISA and the benchmark blocking ELISA); assay: SPR Biacore, mAb captured, IL4Rα-his analyte
T2 construct: also called biotinylated human IL4Rα-his protein
Procedure: Briefly, a goat anti-human IgG (GE Healthcare, Cat. No. BR100839, Human Antibody Capture Kit) was covalently attached to a CMS chip (carboxymethylated dextran-coated chip) via the primary amine group using a standard amine coupling kit supplied by Biacore (GE Healthcare, Pittsburgh, PA, USA). Unreacted portions on the biosensor surface were blocked with ethanolamine. Then, the anti-IL4Rα antibody in the present disclosure at 66.67 nM and an anti-IL4Rα antibody benchmark (dupilumab, or DUPIXENT® or BM) at 10 μg/mL were directed through the chip at a flow rate of 10 μL/min. A recombinant human IL4Rα-his protein (prepared in-house, amino acid sequence set forth in SEQ ID NO: 15), a cynomolgus monkey IL4Rα-his protein (Sino Biological Inc., Cat. No. 90897-008H), or a marmoset monkey IL4Rα-his protein (customized product from Sino Biological Inc., denoted as cal-IL4Rα-his, amino acid sequence set forth in SEQ ID NO: 16) serially diluted with an HBS EP buffer (supplied by Biacore) was directed through the chip at a flow rate of 30 μIJmin. The antigen-antibody binding kinetics was tracked for 2 min and the dissociation kinetics was tracked for 10 min. The association and dissociation curves were fitted according to a 1:1 Langmuir binding model using BIA evaluation software, and the KD, Kₐ, and Kd values were determined.
According to the protocol in the examples above, the binding affinity of the humanized antibodies to human IL4Rα was assessed by the BIAcore technique, and the Kₐ, Kd, and KD values were determined and summarized in Table 3.

[3] = target: T1, human IL4Rα on …; assay: cell-based or functional assay; remark: listed apart in the source
[4] = target: T2, recombinant human IL4Rα-his protein; assay: SPR Biacore, mAb captured from supernatant, IL4Rα-his analyte

B1: Mouse C2C1A1A1 (antibody, V domains shown)
VH: EVQLVESGGGLVQPGGSLKLSCAASGFTFSTYGMSWVRQTPDKRLELVATINSNGGSTSYPDSVKGRFTISRDNAKNTLYLQMSSLKSEDTAMFYCARFFRFRNAMDYWGQGTSVTVSS
VL: DIQMTQSPASLSASVGETVTITCRTSENIYSYLAWYQQKQGKSPQFLVYNAKTLAEGVPSRFSGSGSGTQFSLNINSLQSEDFGSYYCQHYYGPPTWTFGGGTKLEIK
Inhibition of IL4-induced STAT6 phosphorylation (IC50, nM) [1]: 0.19 nM | Inhibition of IL13-induced STAT6 phosphorylation (IC50, nM) [1]: 0.27 nM

B2: huC2C1A1A1-V6 (antibody, human IgG4 S228P, kappa, V domains shown)
VH: B1 VH with K19R, T40S, L47W, A49S, S84R, K87R, S88A, M93V, F94Y, S114L
VL: DIQMTQSPSSLSASVGQRVTITCRTSENIYSYLAWYQQKQGKPPRFLIYNAKTLAEGVPSRFSGSGSGTEFTLTITSLQAEDFGVYYCQHYYGPPTWTFGPGTKLEIKR
notes: Humanized IgG4/kappa
Dissociation (%) [2]: -0.59%

B3: Chimeric C2C1A1A1 (antibody, human IgG4 S228P, kappa, V domains shown)
VH: B1 VH
VL: DIQMTQSPASLSASVGETVTITCRTSENIYSYLAWYQQKQGKSPQFLVYNAKTLAEGVPSRFSGSGSGTQFSLNINSLQSEDFGSYYCQHYYGPPTWTFGGGTKLEIKR
notes: Mouse variable regions on human IgG4 / kappa constant regions; also called chimeric antibody; Supernatant containing chimeric C2C1A1A1
Inhibition of IL4-induced STAT6 phosphorylation (IC50, nM) [1]: 0.27 nM | Inhibition of IL13-induced STAT6 phosphorylation (IC50, nM) [1]: 0.56 nM | Inhibition of IL4-induced STAT6 phosphorylation (IC50, nM) [3]: 0.26 nM | Inhibition of IL13-induced STAT6 phosphorylation (IC50, nM) [3]: 0.39 nM | Kd [4]: 0.111 nM | koff [4]: 4.04e-05 s⁻¹ | Dissociation (%) [2]: -1.94% | End (RU) [2]: 65.8 RU | Kd [2]: < 0.0304 nM | Start (RU) [2]: 67.1 RU | koff [2]: < 1e-05 s⁻¹

B4: huC2C1A1A1-V4 (antibody, human IgG4 S228P, kappa, V domains shown)
VH: EVQLVESGGGLVQPGGSLRLSCAASGFTFSTYGMSWVRQAPGKGLVWVSTINSNGGSTSYPDSVKGRFTISRDNAKNTLYLQMNSLRAEDTAVYYCARFFRFRNAMDYWGQGTLVTVSS
VL: DIQMTQSPSSLSASVGDRVTITCRTSENIYSYLAWYQQKPGKAPKFLIYNAKTLAEGVPSRFSGSGSGTDFTLTISSLQPEDFATYYCQHYYGPPTWTFGQGTKVEIKR
notes: Humanized IgG4/kappa
Dissociation (%) [2]: 0.2%

B5: huC2C1A1A1-V10 (antibody, human IgG4 S228P, kappa, V domains shown)
VH: B4 VH with W47L, S49A
VL: B2 VL
notes: Humanized IgG4/kappa
Dissociation (%) [2]: -1.54%

B6: huC2C1A1A1-V1 (antibody, human IgG4 S228P, kappa, V domains shown)
VH: B4 VH
VL: B4 VL with F46L
notes: Humanized IgG4/kappa
Dissociation (%) [2]: 0.23%

B7: huC2C1A1A1-V13 (antibody, human IgG4 S228P, kappa, V domains shown)
VH: B4 VH with S49A
VL: B4 VL with F46L
notes: Humanized IgG4/kappa
Dissociation (%) [2]: 0.82%

B8: huC2C1A1A1-V11 (antibody, human IgG4 S228P, kappa, V domains shown)
VH: B4 VH with W47L, S49A
VL: B4 VL with I48V
notes: Humanized IgG4/kappa
Dissociation (%) [2]: -0.92%

B9: huC2C1A1A1-V12 (antibody, human IgG4 S228P, kappa, V domains shown)
VH: B4 VH with W47L, S49A
VL: B4 VL
notes: Humanized IgG4/kappa
Dissociation (%) [2]: -1.88%

B10: huC2C1A1A1-V8 (antibody, human IgG4 S228P, kappa, V domains shown)
VH: B4 VH with A40S, G42D, G44R, V46E, N84R
VL: B4 VL
notes: Humanized IgG4/kappa
Dissociation (%) [2]: -1.23%

B11: huC2C1A1A1-V5 (antibody, human IgG4 S228P, kappa, V domains shown)
VH: B4 VH with A40S, G42D, G44R, V46E, N84R
VL: B4 VL with F46L
notes: Humanized IgG4/kappa
Dissociation (%) [2]: -2.28%

B12: huC2C1A1A1-V9 (antibody, human IgG4 S228P, kappa, V domains shown)
VH: B4 VH with W47L, S49A
VL: B4 VL with F46L
notes: Humanized IgG4/kappa
Dissociation (%) [2]: -0.24%

B13: huC2C1A1A1-V2 (antibody, human IgG4 S228P, kappa, V domains shown)
VH: B4 VH
VL: B2 VL
notes: Humanized IgG4/kappa
Dissociation (%) [2]: -0.2%

B14: huC2C1A1A1-V16 (antibody, human IgG4 S228P, kappa, V domains shown)
VH: B4 VH with S49A
VL: B4 VL
notes: Humanized IgG4/kappa
Dissociation (%) [2]: -0.42%

B15: huC2C1A1A1-V14 (antibody, human IgG4 S228P, kappa, V domains shown)
VH: B4 VH with S49A
VL: B2 VL
notes: Humanized IgG4/kappa
Inhibition of IL4-induced STAT6 phosphorylation (IC50, nM) [3]: 0.64 nM | Inhibition of IL13-induced STAT6 phosphorylation (IC50, nM) [3]: 0.73 nM | Dissociation (%) [2]: 0.8%

B16: huC2C1A1A1-V7 (antibody, human IgG4 S228P, kappa, V domains shown)
VH: B4 VH with A40S, G42D, G44R, V46E, N84R
VL: B4 VL with I48V
notes: Humanized IgG4/kappa
Dissociation (%) [2]: -0.66%

B17: huC2C1A1A1-V3 (antibody, human IgG4 S228P, kappa, V domains shown)
VH: B4 VH
VL: B4 VL with I48V
notes: Humanized IgG4/kappa
Dissociation (%) [2]: -0.62%

B18: huC2C1A1A1-V15 (antibody, human IgG4 S228P, kappa, V domains shown)
VH: B4 VH with S49A
VL: B4 VL with I48V
notes: Humanized IgG4/kappa
Inhibition of IL4-induced STAT6 phosphorylation (IC50, nM) [3]: 0.61 nM | Inhibition of IL13-induced STAT6 phosphorylation (IC50, nM) [3]: 0.6 nM | Dissociation (%) [2]: 0.29%
